This data set in a line: soluble on expression in E. coli; label from the status in PepcDB or PDB records.
Take “MGHHHHHHSHTGKTTVAVNLAVFNHIDLFDLDVEEPNDRIFIKGEAEEWPAYRKVPEVRENCNACGVCKDVCQYSAIYVIDKAYPLPELCHSCGACIYLCPEKAMEEVDYQTGKIVRVKSDITLTYGEMRIGEASAVFLIKQVKELMGKNAIIDSPPGASCPMVESVSDADYVILVAEPTPFGLHDLKIAAEVVSDLGLKFGVVVNKHGLPFDGIERYCKEGGVEILGKIPFSKEIAEKYSRGELLHDMKDFFVQLYEG”: the “soluble on expression in E. coli” value is given as “not soluble”. The same measure for “MLPSISINNTSAAYPESINENNNDEINGLVQEFKNLFNGKEGISTCIKHLLELIKNAIRVNDDPYRSNINNSSVTYIDIGSNDTDHITIGIDNQEPIELPANYKDKELVRTIINDNIVEKTHDINNKEMIFSALKEIYDGDPGFIFDKISHKLRHTVTEFDESGKSEPTDLFTWYGKDKKGDSLAIVIKNKNGNDYLSLGYYDQDDYHIQRGIRINGDSLTQYCSENARSASAWFESSKAIMAESFATGSDHQVVNELNGERLREPNEVFKRLGRAIRYNFQVDDAKFRRDNVKEIISTLFANKVDVDHPENKYKDFKNLEDKVEKRLQNRQTKYQNEINQLSALGVNFDDI”: “not soluble”. Then “MQNSALKAWLDSSYLSGANQSWIEQLYEDFLTDPDSVDANWRSTFQQLPGTGVKPDQFHSQTREYFRRLAKDASRYSSTISDPDTNVKQVKVLQLINAYRFRGHQHANLDPLGLWQQDKVADLDPSFHDLTEADFQETFNVGSFASGKETMKLGELLEALKQTYCGPIGAEYMHITSTEEKRWIQQRIESGRATFNSEEKKRFLSELTAAEGLERYLGAKFPGAKRFSLEGGDALIPMLKEMIRHAGNSGTREVVLGMAHRGRLNVLVNVLGKKPQDLFDEFAGKHKEHLGTGDVKYHMGFSSDFQTDGGLVHLALAFNPSHLEIVSPVVIGSVRARLDRLDEPSSNKVLPITIHGDAAVTGQGVVQETLNMSKARGYEVGGTVRIVINNQVGFTTSNPLDARSTPYCTDIGKMVQAPIFHVNADDPEAVAFVTRLALDFRNTFKRDVFIDLVCYRRHGHNEADEPSATQPLMYQKIKKHPTPRKIYADKLEQEKVATLEDATEMVNLYRDALDAGDCVVAEWRPMNMHSFTWSPYLNHEWDEEYPNKVEMKRLQELAKRISTVPEAVEMQSRVAKIYADRQAMAAGEKLFDWGGAENLAYATLVDEGIPVRLSGEDSGRGTFFHRHAVIHNQSNGSTYTPLQHIHNGQGAFRVWDSVLSEEAVLAFEYGYATAEPRTLTIWEAQFGDFANGAQVVIDQFISSGEQKWGRMCGLVMLLPHGYEGQGPEHSSARLERYLQLCAEQNMQVCVPSTPAQVYHMLRRQALRGMRRPLVVMSPKSLLRHPLAVSSLEELANGTFLPAIGEIDELDPKGVKRVVMCSGKVYYDLLEQRRKNNQHDVAIVRIEQLYPFPHKAMQEVLQQFAHVKDFVWCQEEPLNQGAWYCSQHHFREVIPFGASLRYAGRPASASPAVGYMSVHQKQQQDLVNDALNVE”, with “soluble”; and “MGSDKIHHHHHHMVIKNIDAATVAKKFLVRGYNIDPKAAELICKSGLFSDELVDKICRIANGGFIIEKSVVEEFLRNLSNLKPATLTPRPEERKVEEVKASCIALKVIKDITGKSSCQGNVEDFLMYFNSRLEKLSRIIRSRVNTTPIAHAGKVRGNVSVVGMVNEVYERGDKCYIRLEDTTGTITCVATGKNAEVARELLGDEVIGVTGLLKGSSLYANRIVFPDVPINGNGEKKRDFYIVFLSDTHFGSKEFLEKEWEMFVRWLKGEVGGKKSQNLAEKVKYIVIAGDIVDGIGVYPGQEDDLAISDIYGQYEFAASHLDEIPKEIKIIVSPGNHDAVRQAEPQPAFEGEIRSLFPKNVEHVGNPAYVDIEGVKVLIYHGRSIDDIISKIPRLSYDEPQKVMEELLKRRHLSPIYGGRTPLAPEREDYLVIEDVPDILHCGHIHTYGTGFYRGVFMVNSSTWQAQTEFQKKVNLNPMPGNVAVYRPGGEVIRLRFYGE”, with “not soluble”; and “MGSSHHHHHHSSGRENLYFQGHMIMIFTSSCCDNLSIDEIIERAEKGDCEAQYIVGFYYNRDSAIDSPDDEKAFYWLKLAAEQGHCEAQYSLGQKYTEDKSRHKDNEQAIFWLKKAALQGHTFASNALGWTLDRGEAPNYKEAVVWYQIAAESGMSYAQNNLGWMYRNGNGVAKDYALAFFWYKQAALQGHSDAQNNLADLYEDGKGVAQNKTLAAFWYLKSAQQGNRHAQFQIAWDYNAGEGVDQDYKQAMYWYLKAAAQGSVGAYVNIGYMYKHGQGVEKDYQAAFEWFTKAAECNDATAWYNLAIMYHYGEGRPVDLRQALDLYRKVQSSGTRDVSQEIRETEDLL”, with “soluble”.

These data come from the DeepSol protein solubility set.
